Data as given in the RNAGym collection of RNA variant scans (doi:10.1073/pnas.2313332121).
Fewer inactive variants are shown than the library holds.

B1: TPR 5TU (parent)
chain: GGAUCUUCUCGAUCUAACAAAAAAGACAAAUCUGCCACAAAGCUUGAGAGCAUCUUCGGAUGCAGAGGCGGCAGCCUUCGGUGGCGCGAUAGCGCCAACGUUCUCAACUAUGACACGCAAAACGCGUGCUCCGUUGAAUGGAGUUUAUCAUG

Variants of: B1
Experiment: polymerase ribozyme fitness, log enrichment relative to wild type (log ratio); higher = more active; in vitro selection for triplet polymerase activity
How it was run: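 Frozen incubation at −7 °C formed the core of a single, triplicate in vitro selection round applied to PCR-built, transcribed mutant libraries of each subunit of a heterodimeric triplet polymerase ribozyme. Extended constructs were gel-excised, captured with streptavidin beads and amplified by RT-PCR, and input and output libraries were Illumina-sequenced with a filter of ≥10 input reads and ≥1 read per output. Fitness is the logarithm of genotype enrichment relative to wild-type enrichment, with inverse-variance-weighted replicate averaging, and the logarithm is base 2.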

| Variant | polymerase ribozyme fitness (log ratio) |
| --- | --- |
| A37G G50U C72U C105G U139C | ≤ -4.2 |
| A37C G58A | 0.575 |
| C38A G84A | -1.23 |
| C36U C57A | -0.483 |
| C35U G59C C76G G124U | ≤ -4.2 |
| C38U A89U C114U | -2.12 |
| C35U G92A | -3.33 |
| C38A U61A A97G C123U | -1.68 |
| A37C U61A | -1.77 |
| C36A C79U G88C A113G A150U | ≤ -4.2 |
| C36A C57A C99G A106U A115C | ≤ -4.2 |
| C38U A47G C51G C93U | -3.21 |
| C35U C85G A98U A115G C132A U135A | ≤ -4.2 |
| C35U G86A | -1.37 |
| C36U C93A A110C U139A | ≤ -4.2 |
| C38A C75G C96G | ≤ -4.2 |
| C35G U55A A60C C75G C114G A119U | ≤ -4.2 |
| C36U C85A C93A C114U | ≤ -4.2 |
| C38A C131G U146C U151A | ≤ -4.2 |
| C36U U61A C95U U102C | -4 |
| C38U A66G | ≤ -4.2 |

| Variant | polymerase ribozyme fitness (log ratio) |
| --- | --- |
| C36U C85A | -2.75 |
| C36U C85U | -1.83 |
| C36U U146G | -3.6 |
| C35U C114U | -2.28 |
| C35U C114A | -3.87 |
| C35U C93A C132U A147C | -4.05 |
| A37C A98U | 0.384 |
| A37C G84U A120G | -2.19 |
| C38G G59C C63U G83U U90G G126U | ≤ -4.2 |
| C36U A66G C87U C93U U135A | ≤ -4.2 |
| C35U A37G U61A A64U C149G | ≤ -4.2 |
| C36U U61G U82G C85U | -3.95 |
| C36G G92C A121C C125A | ≤ -4.2 |
| C36A A110U A122U | ≤ -4.2 |
| C35U A60G U102C C116A | -3.97 |
| C35U U53A G92U C103U C114G A115U A122U | ≤ -4.2 |
| C36U U82A G83A G84A G86U C93A C96U G117U | -3.98 |
| C38A G70C G126C | -3.53 |
| A37U C57U U101G | -0.608 |
| C35U U45A G59C C93G U144A | ≤ -4.2 |
| A37G G84U G92A U102G G117U G140A U144A | ≤ -4.2 |

| Variant | polymerase ribozyme fitness (log ratio) |
| --- | --- |
| C36A U61G A64C C118A A147C | ≤ -4.2 |
| C35U G65C C76U C96A | ≤ -4.2 |
| C35U C54U G65U G83C C95U C103G A106G | ≤ -4.2 |
| A37C G81C C85G C116G U144G | -4.04 |
| A37C C87A | ≤ -4.2 |
| C38A C85U C87U C116A | -0.329 |
| C35U G124A | -0.554 |
| C38U C87U C103U | -0.308 |
| C38A G58A C95G G124C C125U | -1.11 |
| A37C C87U A119U G128C | -3.46 |
| C35U C85A C103U A119U | -2.38 |
| C38U A60U A89U | -0.823 |
| C38U A91U | ≤ -4.2 |
| A37G G84U U104G C118G | ≤ -4.2 |
| C36G C54G A97G A98U C99U U104A C105G G117A G133C A150U | ≤ -4.2 |
| C38A U55C A66G G80A U90A U127C | ≤ -4.2 |
| A37C U44A C87A G94A U134G G141U | ≤ -4.2 |
| C36A G143U | -4.12 |
| A37G C96G | -1.89 |
| C35U G58A A150G | -1.55 |
| C35U A41G G68A C96G A98C C108G G126U U135C | ≤ -4.2 |

| Variant | polymerase ribozyme fitness (log ratio) |
| --- | --- |
| A37C A41C U53A U56G G59A C79U C87A A113U U134A | ≤ -4.2 |
| A37U G58C | -0.362 |
| C38U C76U U77G G92A C118A C129U | ≤ -4.2 |
| A37C G62C G86A C96G C99A | ≤ -4.2 |
| C38A G59U C85U U90C | ≤ -4.2 |
| A37C C123U | 0.207 |
| C38A G80A G94A A97G C99G C131U G133C | ≤ -4.2 |
| C38U C54A C99U C132U | -2.38 |
| C36U C87U C93A C95G | ≤ -4.2 |
| C35U G50A U82C G141U | -4.1 |
| C38A A147C | -1.26 |
| A37G A49U C51U C85U G92A C96A A97G U144A U146G | ≤ -4.2 |
| A37C C72U G88C A89U A138U U145G | ≤ -4.2 |
| C36U U55A G58A A91U C93U U127A U148C | ≤ -4.2 |
| C35U A64G G81U G92A C93A A115U U134A U151G | ≤ -4.2 |
| C36U C69A A91U G94U C118U A121U | ≤ -4.2 |
| C38A A41C C54A G136U | -4.11 |
| C38A C85U | -0.235 |
| C38G C95A G141U | 1.02 |
| A37G G136A U146C | -1.88 |
